Measurements reported in paper PMC5932227.

Molecular target: cynomolgus OX40, native, on activated cynomolgus CD4 T cells (cynomolgus (endogenous in primary CD4 T cells))
Test: flow cytometry on cells

## MEDI6383, human OX40 ligand IgG4P Fc fusion protein
  Kd: 0.024 nM
